In patent publication US20260209301A1, “Galanin-2 Receptor Agonists” (LIFEARC, priority 2022, published 2026):
Marks after values point to notes of the source that are not given here.

Legend:
GALR2 [1] = biological target: T1, GALR2 (Homo sapiens, UniProt O43603); assay: β-arrestin recruitment, PathHunter CHO-K1 GALR2 cells; type: cell-based; conditions: Table 2; mean +/− standard deviation, n ≥ 3
T1 sequence (O43603 1-387): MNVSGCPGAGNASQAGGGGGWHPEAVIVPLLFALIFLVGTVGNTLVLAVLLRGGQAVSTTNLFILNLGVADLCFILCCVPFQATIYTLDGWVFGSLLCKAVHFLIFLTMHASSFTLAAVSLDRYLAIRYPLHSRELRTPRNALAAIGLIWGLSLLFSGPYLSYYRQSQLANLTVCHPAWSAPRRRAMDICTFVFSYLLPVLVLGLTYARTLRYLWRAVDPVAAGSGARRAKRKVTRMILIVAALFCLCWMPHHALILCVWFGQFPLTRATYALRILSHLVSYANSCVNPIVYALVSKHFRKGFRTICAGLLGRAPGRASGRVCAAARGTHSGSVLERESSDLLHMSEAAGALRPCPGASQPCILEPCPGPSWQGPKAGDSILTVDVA
Protocol: Ligands were prepared at half log dilutions using cell plating reagent 2. 5 μl of each ligand was added to cells and plates incubated at 37° C. for 90 minutes. DiscoverX PathHunter detection kit (DiscoverX, USA) was added to cells as described my manufacturer's guidelines and plates incubated for 60 minutes at room temperature in the dark. Chemiluminescent signal was measured using the PHERAstar FS (BMG, Germany).

GALR3 = biological target: T2, GALR3 (Homo sapiens, UniProt O60755); assay: Luciferase reporter gene assay (SRE), HEK293 Gqi cells; type: cell-based
T2 construct: expressed in transfected cells; host or cells: genetically modified HEK293 Gqi cells, transient
T2 sequence (O60755 1-368): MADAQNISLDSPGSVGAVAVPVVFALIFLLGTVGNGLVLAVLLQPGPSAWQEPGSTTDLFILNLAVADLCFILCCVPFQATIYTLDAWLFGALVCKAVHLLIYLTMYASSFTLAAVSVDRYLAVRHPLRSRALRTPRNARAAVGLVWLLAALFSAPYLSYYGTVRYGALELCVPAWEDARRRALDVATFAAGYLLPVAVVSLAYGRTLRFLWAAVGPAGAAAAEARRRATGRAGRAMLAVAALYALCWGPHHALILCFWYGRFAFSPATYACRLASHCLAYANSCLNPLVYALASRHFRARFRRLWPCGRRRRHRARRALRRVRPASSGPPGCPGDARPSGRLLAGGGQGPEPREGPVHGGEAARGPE
Protocol: GalR3 activity was measured, alongside GalR1 and GalR2, using a luciferase reporter assay. A reporter plasmid and a receptor plasmid, were transiently transfected into the target cell line. The reporter plasmid contains a serum response element (SRE) or a nuclear factor of activated T-cells response element (NFAT-RE) which is coupled to a luciferase transcript and induces expression of the luciferase upon a specific G-protein (Gai uses SRE; Gaq uses NFAT-RE) activation. The target receptor is constantly expressed after cell transfection. For GALR1 and GALR3 screening, genetically modified HEK293 Gqi cells were transiently transfected with the SRE reporter and the receptor (GALR1 and GALR3) plasmids. For GALR2 screening, HEK293 cells were transiently transfected with the NFAT-RE reporter and the receptor (GALR2) plasmid. […] The luciferase activity was analyzed with the Bright-Glo Luciferase Assay (Promega) in an EnSpire plate reader.
Therefore, to measure activity at the GalR3 receptor a reporter gene assay was used. In this system MAP/ERK signalling is used to measure receptor activity. Activation of Gqi coupled receptors leads to downstream activation of ERK1/2. The activated ERK translocates to the nucleus where it phosphorylates and activates transcription factors, which lead to the binding of Serum response element (SRE). In this assay SRE activation induces expression of a luciferase reporter gene. […] To ensure this effect was not an artifact of the reporter gene assay, GalR1 and GalR2 reporter assays (using SRE and NFAT-RE respectively) were also run.

mouse GalR2 = biological target: T3, mouse GalR2 (Mus musculus, UniProt O88854); assay: Calcium assay at orthologue receptor; type: cell-based; conditions: Table 8; Calcium assays; mean +/− standard deviation
T3 sequence (O88854 1-371): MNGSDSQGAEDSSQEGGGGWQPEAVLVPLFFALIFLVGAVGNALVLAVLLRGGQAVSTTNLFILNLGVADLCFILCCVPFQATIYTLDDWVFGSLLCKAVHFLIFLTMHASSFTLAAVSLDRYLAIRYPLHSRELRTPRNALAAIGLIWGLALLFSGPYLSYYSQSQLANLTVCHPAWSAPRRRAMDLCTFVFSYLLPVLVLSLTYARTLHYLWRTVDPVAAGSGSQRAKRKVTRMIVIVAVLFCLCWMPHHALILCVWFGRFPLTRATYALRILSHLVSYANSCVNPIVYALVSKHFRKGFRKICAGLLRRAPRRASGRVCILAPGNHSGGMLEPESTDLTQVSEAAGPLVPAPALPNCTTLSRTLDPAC
Description: (§1) These species were chosen as they represent potential downstream in vivo models to be used. Within native galanin amino acid residues 1-15 are conserved across species, we would therefore expect the Gal FC fusions comprising amino acids 2 to 13 to retain GalR2 activity in these species. Calcium imaging was used to define receptor activity.

rat GalR2 = biological target: T4, rat GalR2 (Rattus norvegicus, UniProt O08726); assay: Calcium assay at orthologue receptor; type: cell-based; conditions: Table 8; Calcium assays; mean +/− standard deviation
T4 sequence (O08726 1-372): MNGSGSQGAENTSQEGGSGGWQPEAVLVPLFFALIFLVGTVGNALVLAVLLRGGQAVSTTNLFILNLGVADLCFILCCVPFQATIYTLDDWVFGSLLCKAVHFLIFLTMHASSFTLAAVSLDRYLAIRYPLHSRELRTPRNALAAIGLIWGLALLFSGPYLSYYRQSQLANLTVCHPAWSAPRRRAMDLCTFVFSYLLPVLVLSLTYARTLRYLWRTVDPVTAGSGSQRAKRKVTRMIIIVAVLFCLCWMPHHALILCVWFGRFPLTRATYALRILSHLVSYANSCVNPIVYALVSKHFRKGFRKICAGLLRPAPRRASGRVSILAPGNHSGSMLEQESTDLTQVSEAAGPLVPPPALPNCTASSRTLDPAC
Description: These species were chosen as they represent potential downstream in vivo models to be used. […] Calcium imaging was used to define receptor activity.

cynomolgus GalR2 = assay: Calcium assay at orthologue receptor; type: cell-based, Macaca fascicularis; conditions: Table 8; Calcium assays; mean +/− standard deviation
Description: as §1

GALR2 [2] = biological target: T1, GALR2; assay: Calcium assay, CHO GalR2 cells (FLIPR); conditions: mean +/− standard deviation
Protocol: CHO GalR2 cells were plated at 10,000 cells per well in black clear bottom plates (corning, USA) and incubated overnight at 37° C. with 5% CO2. […] Ligands were prepared at a 5× concentration and added to cells using the FLIPR (Molecular Devices, USA). Baseline was typically 20 seconds before ligand addition. […] For analysis, fluorescence was normalised to pre-addition baseline and peak fluorescence used for all quantification.
In brief, a panel of functional cell-based microtiter-plate assays were developed using recombinant GalR1 and GalR2 receptors stably expressed in CHO cells. […] Nominally this equated to 10 serial (~3fold) dilutions with highest concentrations of 10-1 μM as appropriate.
In addition to generating both potency and efficacy estimates, the latter being expressed relative to native galanin, both G-protein and non-G-Protein signalling pathways were measured.

GALR2 [3] = biological target: T1, GALR2; assay: Radioligand binding, [125I]galanin displacement on CHO GalR2 membranes; set-up: expressed in transfected cells; host or cells: CHO (Flp-In, pcDNA5/FRT); conditions: recombinant GalR2 membranes, FIG. 3
Protocol: Cell membrane homogenates (4 μg protein—from CHO cells expressing the GalR2 receptor) were incubated for 120 minutes at 22° C. with 0.05 nM [^125I] galanin in the absence or presence of test compound in a buffer containing 25 mM Tris-HCl (pH 7.4, 10 mM MgCl2 and 0.5% BSA. Non-specific binding was determined in the presence of 1 μM porcine galanin. Following incubation, samples were filtered rapidly under vacuum through glass fiber filters (GF/B, Packard) pre-soaked with 0.3% PEI and rinsed several times with ice cold 50 mM Tris-HCl using a 96 sample cell harvester (Unifilter, Packard). The filters are dried then counted for radioactivity in a scintillation counter (Topcount, Packard) using a scintillation cocktail (Microscint 0), Packard). The results are expressed as a percent inhibition of the control radioligand specific binding. The standard reference compound is porcine galanin which is tested in each experiment at several concentrations to obtain a competition curve from which its IC50 is generated.
Briefly, cell overexpressing recombinant GalR2 were used to for crude membrane preparations. Competition style binding assays were then used to monitor displacement of [125I]-Galanin using a range of concentrations of Gal-FC fusion. After a period of incubation data were expressed relative the maximum specific Galanin bound.

GalR1 = biological target: T5, GalR1 (Homo sapiens, UniProt P47211); assay: Ala scanning of Gal2-13 peptides, activity at GalR1; type: cell-based; conditions: peptides vs Gal2-13, FIG. 5
T5 sequence (P47211 1-349): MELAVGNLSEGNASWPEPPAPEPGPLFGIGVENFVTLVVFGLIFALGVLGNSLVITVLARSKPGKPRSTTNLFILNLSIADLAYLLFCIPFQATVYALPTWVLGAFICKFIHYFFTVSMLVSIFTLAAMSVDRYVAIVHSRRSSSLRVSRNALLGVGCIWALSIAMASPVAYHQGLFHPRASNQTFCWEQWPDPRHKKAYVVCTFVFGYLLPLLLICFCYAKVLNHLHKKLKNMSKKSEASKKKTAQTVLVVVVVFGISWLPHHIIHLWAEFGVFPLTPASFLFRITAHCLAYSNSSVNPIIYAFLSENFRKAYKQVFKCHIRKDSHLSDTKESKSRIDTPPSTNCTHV
Description: Replacement of residues 2, 3, 5, 6, 9, 10, 11, 12 (corresponding to W, T, L, S, Y, L, L, G) led to a significant decrease in activity at GalR2 (FIG. 5). Replacement of residues 4, 8, 13 (corresponding to N, G, P) caused no decrease in activity. […] Of note, none of the substitutions increased GalR2 or GalR1 agonistic activity.

Row | effect of Ala substitution on GalR1 activity (GalR1) | Substance | GalR2 Beta Arrestin, mean pEC50 (GALR2 [1]) | activity at GalR3 (in words) (GALR3) | Mouse GalR2 activity (mouse GalR2) | Rat GalR2 activity (rat GalR2) | Cynomolgus GalR2 activity (cynomolgus GalR2) | GalR2 Calcium, mean pEC50 (GALR2 [2]; Table 2, n ≥ 3) | GalR2 activity (calcium assay), warhead length (GALR2 [2]; Table 6, highest concentration tested 10 μM) | pIC50, displacement of [125I]-Galanin binding (GALR2 [3])
1 | – | Gal2-12FC: galanin 2-12, AEAAAKEAAAKA linker, human IgG1 FC; SEQ ID NO: 25 | 7.6 +/− 0.2* | no measurable activity | 6.8 +/− 0.1 | 6.6 +/− 0.4 | 7.7 +/− 0.4 | 6.3 +/− 0.3 | 6.6 +/− 0.0 | 7.24
2 | reduced GalR1 activity | Gal2-13ala8: ala scanning peptide WTLNSAAYLLGP, SEQ ID NO: 43 | – | – | – | – | – | – | – | –
